Source: patent US20130150301A1 (KAI PHARMACEUTICALS, published 2013)
Ends that are not written are not given here.

T1: human calcium-sensing receptor (CaSR) (human, UniProt P41180 20-1078)
T1 sequence (looked up): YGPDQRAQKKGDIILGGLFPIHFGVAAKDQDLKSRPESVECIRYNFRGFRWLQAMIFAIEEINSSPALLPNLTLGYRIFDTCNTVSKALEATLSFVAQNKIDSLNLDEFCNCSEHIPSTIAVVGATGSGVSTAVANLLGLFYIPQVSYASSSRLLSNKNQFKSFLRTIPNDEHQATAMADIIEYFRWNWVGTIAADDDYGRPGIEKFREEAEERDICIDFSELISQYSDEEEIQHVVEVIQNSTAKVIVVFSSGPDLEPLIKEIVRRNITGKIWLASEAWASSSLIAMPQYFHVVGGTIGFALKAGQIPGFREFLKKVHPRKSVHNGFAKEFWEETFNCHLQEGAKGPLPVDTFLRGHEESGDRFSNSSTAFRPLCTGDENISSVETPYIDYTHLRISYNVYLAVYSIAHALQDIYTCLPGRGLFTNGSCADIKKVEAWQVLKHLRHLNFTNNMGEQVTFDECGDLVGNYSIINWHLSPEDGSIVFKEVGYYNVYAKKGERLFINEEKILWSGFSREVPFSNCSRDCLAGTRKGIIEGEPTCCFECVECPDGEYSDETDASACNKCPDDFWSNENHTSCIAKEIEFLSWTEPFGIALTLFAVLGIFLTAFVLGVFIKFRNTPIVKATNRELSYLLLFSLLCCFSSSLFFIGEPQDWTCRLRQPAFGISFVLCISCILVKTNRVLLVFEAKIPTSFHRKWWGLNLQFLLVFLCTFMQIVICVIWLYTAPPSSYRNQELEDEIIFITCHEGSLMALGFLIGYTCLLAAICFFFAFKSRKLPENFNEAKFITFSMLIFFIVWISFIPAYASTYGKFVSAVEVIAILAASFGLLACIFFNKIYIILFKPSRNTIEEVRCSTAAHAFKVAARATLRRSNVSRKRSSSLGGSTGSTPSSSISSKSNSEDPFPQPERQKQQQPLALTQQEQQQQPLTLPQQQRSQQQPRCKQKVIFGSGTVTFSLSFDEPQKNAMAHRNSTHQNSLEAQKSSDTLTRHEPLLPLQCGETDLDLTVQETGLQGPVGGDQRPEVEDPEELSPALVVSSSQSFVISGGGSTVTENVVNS


Molecular target: T1, human calcium-sensing receptor (CaSR)
Assay: cell-based or functional assay

Binder | EC50 (IP1 production in HEK293 cells that express the human CaSR) [µM]
Ac-YGRKKRRQRRR-NH2 [Ac-YGRKKRRQRRR-NH2 (SEQ ID NO: 48)] | 16
XAXXXAX (N-terminal acetyl; C-terminal amide; D-Cys 1, L-Ala 2 and 6, D-Arg 3, 4, 5 and 7) [Ac-cArrrAr-NH2 (SEQ ID NO: 43)] | > 1000
XXXXXXXX (acetylated beta-alanine (Ac-bAla) at the N-terminus; C-terminal amide; carrrar all D; L-Cys (C) attached to the side chain of the D-Cys) [Ac-bAla-c(C)arrrar-NH2 (SEQ ID NO: 61)] | 2.6
XXXXXXX (N-terminal acetyl; free C-terminal acid (-OH); all D-residues) [Ac-carrrar-OH (SEQ ID NO: 74)] | 31
XXXXXXX (N-terminal acetyl; C-terminal amide; all D-residues; L-Cys carrying a 5 kDa polyethylene glycol (PEG5-C) attached to the side chain of D-Cys 1) [Ac-c(PEG5-C)rrrrrr-NH2 (SEQ ID NO: 58)] | 0.58
XXXXXXX (N-terminal acetyl; C-terminal amide; all seven residues D; D-Cys 1 conjugated via a disulfide linkage to an L-Cys residue (C)) [Ac-c(C)arrrar-NH2 (SEQ ID NO: 3)] | 10
XXXXXXX (not fully specified; N-terminal acetyl; C-terminal amide; all D-residues; oxidized glutathione (GS) attached to the side chain of D-Cys 1) [Ac-c(GS)rrrrrr-NH2 (SEQ ID NO: 53)] | 7.8
conjugate of SEQ ID NO: 45 (CHDAPIGYD) and SEQ ID NO: 47 (Ac-CYGRKKRRQRRR-NH2) (not fully specified; cysteine pairing not given here; also: further groups not given here) peptide 1: CHDAPIGYD peptide 2: Ac-CYGRKKRRQRRR-NH2 | 21
XXXXXXX (N-terminal acetyl; C-terminal amide; all D-residues; mercaptopropionic acid (Mpa) attached to the side chain of D-Cys 1) [Ac-c(Mpa)arrrar-NH2 (SEQ ID NO: 56)] | 21
XXXXXXX (no N-terminal cap; C-terminal amide; all D-residues) [crrrrrr-NH2 (SEQ ID NO: 80)] | 1.1
Ac-CARRRAR-NH2 [Ac-CARRRAR-NH2 (SEQ ID NO: 75)] | 58
XXXXX (N-terminal acetyl; C-terminal amide; all D-residues) [Ac-crrrr-NH2 (SEQ ID NO: 4)] | 16
XXXXXXX (N-terminal acetyl; C-terminal amide; all D-residues; benzoyl attached to the side chain of D-Cys 1) [Ac-c(Benzoyl)rrrrrr-NH2 (SEQ ID NO: 81)] | 3.6
Ac-CYGRKKRRQRRR-NH2 [Ac-CYGRKKRRQRRR-NH2 (SEQ ID NO: 47)] | 4.5
XXXXXXX (N-terminal acetyl; C-terminal amide; all D-residues; N-acetylated L-Cys (Ac-C) attached to the side chain of D-Cys 1) [Ac-c(Ac-C)arrrar-NH2 (SEQ ID NO: 55)] | 21
conjugate of SEQ ID NO: 46 (CPDYHDAGI) and SEQ ID NO: 47 (Ac-CYGRKKRRQRRR-NH2) (not fully specified; cysteine pairing not given here) peptide 1: CPDYHDAGI peptide 2: Ac-CYGRKKRRQRRR-NH2 | 21
XXXXXXXXXX (HELM PEPTIDE1{[ac].[dC].[dA].[dA].[dA].[dR].[dR].[dR].[dR].[dR].[dR].[am]}$$$$V2.0; SMILES CC(=O)N[C@H](CS)C(=O)N[C@H](C)C(=O)N[C@H](C)C(=O)N[C@H](C)C(=O)N[C@H](CCCNC(=N)N)C(=O)N[C@H](CCCNC(=N)N)C(=O)N[C@H](CCCNC(=N)N)C(=O)N[C@H](CCCNC(=N)N)C(=O)N[C@H](CCCNC(=N)N)C(=O)N[C@H](CCCNC(=N)N)C(N)=O) [Ac-caaarrrrrr-NH2 (SEQ ID NO: 77)] | 4.6
CXRXRXR (N-terminal acetyl; C-terminal amide; L-Cys 1, D-Ala 2, L-Arg 3, D-Arg 4, L-Arg 5, D-Ala 6, L-Arg 7) [Ac-CaRrRaR-NH2 (SEQ ID NO: 44)] | 5.6
XXXXXXX (not fully specified; N-terminal acetyl; C-terminal amide; L-Cys 1 conjugated via a disulfide linkage to an L-Cys residue (C); residues 2-7 D) [Ac-C(C)arrrar-NH2 (SEQ ID NO: 34)] | 2.5
XXXXXXXXXXXX (N-terminal acetyl; C-terminal amide; all D-residues (glycine printed in lower case)) [Ac-cygrkkrrqrrr-NH2 (SEQ ID NO: 50)] | 2
XXXXXXX (no N-terminal cap; C-terminal amide; all D-residues; L-Cys (C) attached to the side chain of D-Cys 1) [c(C)arrrar-NH2 (SEQ ID NO: 60)] | 3.1
XXXXXXX (N-terminal acetyl; C-terminal amide; all D-residues; acetyl attached to the side chain of D-Cys 1) [Ac-c(acetyl)rrrrrr-NH2 (SEQ ID NO: 82)] | 4.1
XXXXXXXX (acetylated beta-alanine (Ac-bAla) at the N-terminus; C-terminal amide; D-Cys and six D-Arg) [Ac-bAla-crrrrrr-NH2 (SEQ ID NO: 30)] | 1
XXXXXXX (N-terminal acetyl; C-terminal amide; D-homocysteine (dHcy) at position 1; D-Arg 2-7) [Ac-dHcy rrrrrr-NH2 (SEQ ID NO: 32)] | 2

Molecular target: T1, human calcium-sensing receptor (CaSR)
Assay: cell-based or functional assay
Remark: another data set of the same source

Binder | fold decrease in potency against Ac-carrrar-NH2 (SEQ ID NO:26) [fold] | fold difference in potency against the CaSR, against Ac-crrrrrr-NH2 (SEQ ID NO:6) [fold] | fold loss in in vitro potency against Ac-crrrrrr-NH2 (SEQ ID NO:6), human CaSR assay in HEK 293 cells [fold] | shift in potency (HEK-293 in vitro cell assay), 4 against 5 arginine subunits [fold] | fold difference in potency against Ac-carrrar-NH2 (SEQ ID NO:26) [fold] | fold reduction in potency against Ac-carrrar-NH2 (SEQ ID NO:26) [fold]
XAXXXAX (N-terminal acetyl; C-terminal amide; D-Cys 1, L-Ala 2 and 6, D-Arg 3, 4, 5 and 7) [Ac-cArrrAr-NH2 (SEQ ID NO: 43)] | > 600 | > 2000 | – | – | – | –
XXXXXXX (HELM PEPTIDE1{[ac].[dC].[dR].[dR].[dR].[dR].[dR].[dA].[am]}$$$$V2.0; SMILES CC(=O)N[C@H](CS)C(=O)N[C@H](CCCNC(=N)N)C(=O)N[C@H](CCCNC(=N)N)C(=O)N[C@H](CCCNC(=N)N)C(=O)N[C@H](CCCNC(=N)N)C(=O)N[C@H](CCCNC(=N)N)C(=O)N[C@H](C)C(N)=O) [Ac-crrrrra-NH2 (SEQ ID NO: 13)] | – | – | ~2 | – | – | –
XXXXXXX (HELM PEPTIDE1{[ac].[dC].[dR].[dA].[dR].[dR].[dR].[dR].[am]}$$$$V2.0; SMILES CC(=O)N[C@H](CS)C(=O)N[C@H](CCCNC(=N)N)C(=O)N[C@H](C)C(=O)N[C@H](CCCNC(=N)N)C(=O)N[C@H](CCCNC(=N)N)C(=O)N[C@H](CCCNC(=N)N)C(=O)N[C@H](CCCNC(=N)N)C(N)=O) [Ac-crarrrr-NH2 (SEQ ID NO: 9)] | – | – | ~2 | – | – | –
XXXXXXX (HELM PEPTIDE1{[ac].[dC].[dR].[dR].[dA].[dR].[dR].[dR].[am]}$$$$V2.0; SMILES CC(=O)N[C@H](CS)C(=O)N[C@H](CCCNC(=N)N)C(=O)N[C@H](CCCNC(=N)N)C(=O)N[C@H](C)C(=O)N[C@H](CCCNC(=N)N)C(=O)N[C@H](CCCNC(=N)N)C(=O)N[C@H](CCCNC(=N)N)C(N)=O) [Ac-crrarrr-NH2 (SEQ ID NO: 10)] | – | – | ~2 | – | – | –
XXXXX (N-terminal acetyl; C-terminal amide; all D-residues) [Ac-crrrr-NH2 (SEQ ID NO: 4)] | – | – | – | > 10 | – | –
XXXXXXX (N-terminal acetyl; C-terminal amide; all D-residues) [Ac-carrrar-NH2 (SEQ ID NO: 26)] | – | ~3 | – | – | – | –
CXRXRXR (N-terminal acetyl; C-terminal amide; L-Cys 1, D-Ala 2, L-Arg 3, D-Arg 4, L-Arg 5, D-Ala 6, L-Arg 7) [Ac-CaRrRaR-NH2 (SEQ ID NO: 44)] | – | 10 | – | – | < 4 | –
XGXXXGX (N-terminal acetyl; C-terminal amide; D-Cys 1, Gly 2 and 6, D-Arg 3, 4, 5 and 7) [Ac-cGrrrGr-NH2 (SEQ ID NO: 42)] | – | – | – | – | – | < 8
XXXXXXX (HELM PEPTIDE1{[ac].[dC].[dA].[dR].[dR].[dR].[dR].[dR].[am]}$$$$V2.0; SMILES CC(=O)N[C@H](CS)C(=O)N[C@H](C)C(=O)N[C@H](CCCNC(=N)N)C(=O)N[C@H](CCCNC(=N)N)C(=O)N[C@H](CCCNC(=N)N)C(=O)N[C@H](CCCNC(=N)N)C(=O)N[C@H](CCCNC(=N)N)C(N)=O) [Ac-carrrrr-NH2 (SEQ ID NO: 8)] | – | – | ~2 | – | – | –
